Measurements taken from patent US6916624 (Genentech, dated 2005).
Read-outs that look alike come from different tables or passages of the source.

What was measured:
[1] = biological target: ErbB receptor(s) on MCF7 cells; assay: cell-based or functional assay
[2] = biological target: ErbB2 on human breast cancer cells (MDA-MB-175, SK-BR-3) (human) (UniProt P04626); assay: cell-based or functional assay
[3] = biological target: ErbB receptor(s) on MCF7 cells; assay: cell-based or functional assay; remark: listed apart in the source
[4] = biological target: T1, ErbB3-immunoadhesin (ErbB3-IgG fusion, L636 ErbB3-(TR)-DKTH224 VH) (human, UniProt P21860 20-643; P01857 104-330 = IgG part); assay: competitive displacement of ^125I-HRGβ1(177-244) (0.23 nM) from ErbB3-IgG captured on goat-anti-human antibody coated wells
T1 construct: extracellular domain;domain: hinge domain of the immunoglobulin onward; Made in HEK-293 cells, purified on Protein A; also called ErbB3 immunoadhesins
T1 sequence (P21860 other isoform, or with tags, fused parts or gaps limits assumed): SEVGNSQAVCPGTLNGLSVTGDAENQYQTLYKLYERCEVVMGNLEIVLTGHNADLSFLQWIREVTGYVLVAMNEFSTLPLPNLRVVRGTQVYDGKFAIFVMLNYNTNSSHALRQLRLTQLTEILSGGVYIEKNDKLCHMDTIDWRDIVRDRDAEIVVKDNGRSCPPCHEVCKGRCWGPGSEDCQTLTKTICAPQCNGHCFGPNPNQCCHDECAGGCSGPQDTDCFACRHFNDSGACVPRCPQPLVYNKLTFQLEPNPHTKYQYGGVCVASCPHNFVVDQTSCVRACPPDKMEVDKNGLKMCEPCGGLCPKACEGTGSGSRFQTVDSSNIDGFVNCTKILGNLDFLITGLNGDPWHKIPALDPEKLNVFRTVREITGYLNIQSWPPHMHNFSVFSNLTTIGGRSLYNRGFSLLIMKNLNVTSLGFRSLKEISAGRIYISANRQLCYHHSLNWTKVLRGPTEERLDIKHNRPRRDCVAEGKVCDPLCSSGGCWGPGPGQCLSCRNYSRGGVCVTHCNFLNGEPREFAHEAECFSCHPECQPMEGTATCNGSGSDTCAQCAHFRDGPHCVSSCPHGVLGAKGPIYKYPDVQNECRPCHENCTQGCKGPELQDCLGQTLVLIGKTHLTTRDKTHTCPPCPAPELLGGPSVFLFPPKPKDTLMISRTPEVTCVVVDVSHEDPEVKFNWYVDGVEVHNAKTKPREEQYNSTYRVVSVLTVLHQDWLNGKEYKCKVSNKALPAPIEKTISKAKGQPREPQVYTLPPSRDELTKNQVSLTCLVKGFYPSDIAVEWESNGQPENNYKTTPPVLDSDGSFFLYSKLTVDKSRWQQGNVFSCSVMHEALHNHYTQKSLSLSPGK
Experimental: (§1) ¹²⁵I-HRG Binding Assay. Binding assays were performed in Nunc breakapart strip wells. Plates were coated at 4° C. overnight with 100 μl of 5 μg/ml goat-anti-human antibody (Boehringer Mannheim) in 50 mM carbonate buffer (pH 9.6). Plates were rinsed twice with wash buffer (PBS/0.05% Tween-20™) and blocked with 100 μl 1% BSA/PBS for 30 min. Buffer was removed and each well was incubated with 15 ng IgG fusion protein in 1% BSA/PBS under vigorous shaking for 1.5 hours. Plates were rinsed three times with wash buffer and competitive binding was carried out by adding various amounts of γ-HRG and ¹²⁵I-HRGβ1 under vigorous shaking. After incubation for 1.5–2 hours, wells were rinsed three times with wash buffer, drained and individual wells were counted using a 100 Series Iso Data γ-counter.
(§2) Bio/Technology 11:187–193 (1993)). Under those conditions trxγ-HRG accumulated in inclusion bodies from which the recombinant protein was isolated. Following purification, the protein was sulfitolyzed and then refolded by the addition of cysteine. The interaction of γ-HRG with the heregulin receptors ErbB3 and ErbB4 was examined. […] Cells were treated with various amounts of γ-HRG and tyrosine kinase activity was determined using immunoblotting with anti-phosphotyrosine antibody.

[5] = biological target: T2, ErbB4-immunoadhesin (ErbB4-IgG fusion, G640 ErbB4-(TR)-DKTH224 VH) (human, UniProt Q15303 26-651; P01857 104-330 = IgG part); assay: competitive displacement of ^125I-HRGβ1(177-244) (0.23 nM) from ErbB4-IgG captured on goat-anti-human antibody coated wells
T2 construct: extracellular domain;domain: hinge domain of the immunoglobulin onward; also called H4-IgG; ErbB4 immunoadhesins
T2 sequence (Q15303 other isoform, or with tags, fused parts or gaps limits assumed): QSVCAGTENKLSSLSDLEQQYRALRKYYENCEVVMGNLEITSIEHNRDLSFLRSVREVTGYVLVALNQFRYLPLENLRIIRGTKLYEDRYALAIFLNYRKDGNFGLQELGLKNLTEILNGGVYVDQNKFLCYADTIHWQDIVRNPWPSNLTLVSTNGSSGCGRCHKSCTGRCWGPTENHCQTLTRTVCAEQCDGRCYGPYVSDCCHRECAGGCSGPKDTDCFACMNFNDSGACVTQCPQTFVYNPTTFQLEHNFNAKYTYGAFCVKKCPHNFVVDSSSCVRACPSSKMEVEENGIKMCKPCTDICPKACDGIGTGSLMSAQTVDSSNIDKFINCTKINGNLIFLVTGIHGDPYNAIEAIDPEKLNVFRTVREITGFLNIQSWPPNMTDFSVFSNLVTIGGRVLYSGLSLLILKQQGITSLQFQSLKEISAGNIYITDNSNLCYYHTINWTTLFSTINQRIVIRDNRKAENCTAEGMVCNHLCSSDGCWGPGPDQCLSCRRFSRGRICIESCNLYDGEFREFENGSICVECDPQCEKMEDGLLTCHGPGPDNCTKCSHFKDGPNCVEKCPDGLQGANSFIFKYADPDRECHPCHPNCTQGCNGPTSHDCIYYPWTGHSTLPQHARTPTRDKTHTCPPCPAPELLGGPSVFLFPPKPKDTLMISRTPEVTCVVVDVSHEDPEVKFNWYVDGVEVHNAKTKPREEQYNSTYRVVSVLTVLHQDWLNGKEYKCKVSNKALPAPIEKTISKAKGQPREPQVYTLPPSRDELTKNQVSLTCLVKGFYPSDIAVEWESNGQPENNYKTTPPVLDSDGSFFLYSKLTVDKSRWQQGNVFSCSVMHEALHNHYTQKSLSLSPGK
Experimental: as §1, §2

EGF-like domain of HRGβ1(177-244), expressed in E. coli (from UniProt Q02297 177-244) (ligand)
EC50 of tyrosine phosphorylation in MCF7 cells [1]: 0.06 nM

anti-ErbB2 monoclonal antibody 4D5
growth inhibition of SK-BR-3 cells (crystal violet staining) [2]: 66%

B1: trxγ-HRG (amino acids 455-768), N-terminal truncated γ-HRG thioredoxin fusion protein (ligand)
chain: QVFIDHPVHLKFNVSLGKAALVGIYGRKGLPPSHTQFDFVELLDGRRLLTQEARSLEGTPRQSRGTVPPSSHETGFIQYLDSGIWHLAFYNDGKESEVVSFLTTAIALPPRLKEMKSQESAAGSKLVLRCETSSEYSSLRFKWFKNGNELNRKNKPQNIKIQKKPGKSELRINKASLADSGEYMCKVISKLGNDSASANITIVESNEIITGMPASTEGAYVSSESPIRISVSTEGANTSSSTSTSTTGTSHLVKCAEKEKTFCVNGGECFMVKDLSNPSRYLCKCPNEFTGDRCQNYVMASFYSTSTPFLSLPE
notes: The results text calls it simply γ-HRG; also called recombinant γ-HRG; bacterial expressed truncated γ-HRG; not shown: N-terminal thioredoxin encoded by the pET-32a TRX fusion vector (Novagen); vector-encoded residues of pET32a between thioredoxin and the BamHI insertion site are not described
EC50 of tyrosine phosphorylation in MCF7 cells [3]: 0.06 nM
EC50 [4]: 19 nM
EC50 [5]: 13.3 nM
